The target of experiment [1] is T1, Ps_cOTC (Psychrobacter sp. PAMC 21119, UniProt Z9QBN3KKL3).
T1 construct: full-length arcB product, N-terminal His6 (pET-28a NdeI) kept; expressed in E. coli BL21(DE3); homotrimer in solution
T1 sequence (Z9QBN3KKL3 1-336): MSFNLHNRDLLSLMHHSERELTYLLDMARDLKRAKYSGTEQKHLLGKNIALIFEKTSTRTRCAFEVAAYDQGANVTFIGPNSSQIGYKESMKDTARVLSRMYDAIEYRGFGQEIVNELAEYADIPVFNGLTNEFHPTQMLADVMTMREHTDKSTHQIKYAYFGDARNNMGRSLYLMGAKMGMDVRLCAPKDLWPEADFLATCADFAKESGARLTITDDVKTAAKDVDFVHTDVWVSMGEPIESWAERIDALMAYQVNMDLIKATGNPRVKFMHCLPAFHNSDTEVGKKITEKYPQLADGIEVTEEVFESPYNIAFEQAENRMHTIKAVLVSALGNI
The experiment can be described thus: label-free thermal shift (Tycho NT.[…], intrinsic fluorescence). The experiment is classed as binding. To be noted: with 50 mM CP (no shift by NVA alone); 20 mM Tris-HCl pH 8.0; 15 min incubation at 295 K.

Experiment [2] has as its target T2, Ps_aOTC (Psychrobacter sp. PAMC 21119, UniProt A0ACD6BAY5).
T2 construct: full-length argF product, N-terminal His6 (pET-28a) kept; expressed in E. coli BL21(DE3); homotrimer in solution
The description is as above. It is filed as binding. The note with it: with 5 mM CP (no shift by NVA alone); 20 mM Tris-HCl pH 8.0; 15 min incubation at 295 K.

Experiment [3] deals with T2, Ps_aOTC. The experiment is described as above. It is filed as binding. To be noted: apo Tm 53.7 ± 0.4 °C; saturating at 20 mM CP; 20 mM Tris-HCl pH 8.0; 15 min incubation at 295 K.
The target of experiment [4] is T1, Ps_cOTC. Described as above. It is filed as binding. To be noted: apo Tm 71.9 ± 0.0 °C; up to 50 mM CP; 20 mM Tris-HCl pH 8.0; 15 min incubation at 295 K.
The target in experiment [5] is anabolic ornithine carbamoyltransferase from Psychrobacter sp. PAMC 21119 (Psychrobacter sp. PAMC 21119). As to the kind of experiment: SEC; Superdex 200 10/300 GL, 20 mM Tris-HCl pH 8.0, NaCl 300, 500 and 1,000 mM, protein 1 mg/mL, column calibrated with standards.
Experiment [6] has the same target. As to the kind of experiment: crystal structure; X-ray, molecular replacement; Ps_cOTC at 2.6 Å (0.1 M Tris-HCl pH 8.1, 1.3 M lithium sulfate), Ps_aOTC at 2.2 Å (0.1 M sodium acetate:HCl pH 4.6, 1 M ammonium citrate dibasic).
Experiment [7] shares this target. The experiment can be described thus: AUC; sedimentation velocity, 20 mM Tris-HCl pH 8.0, 200 mM NaCl, 20°C, 42,000 RPM, SEDFIT.
The target of experiment [8] is catabolic ornithine carbamoyltransferase from Psychrobacter sp. PAMC 21119 (Psychrobacter sp. PAMC 21119). The experiment can be described thus: SEC; Superdex 200 10/300 GL, 20 mM Tris-HCl pH 8.0, NaCl 300, 500 and 1,000 mM, protein 1 mg/mL, column calibrated with standards.
The target is the same in experiment [9]. The experiment can be described thus: crystal structure; X-ray, molecular replacement; Ps_cOTC at 2.6 Å (0.1 M Tris-HCl pH 8.1, 1.3 M lithium sulfate), Ps_aOTC at 2.2 Å (0.1 M sodium acetate:HCl pH 4.6, 1 M ammonium citrate dibasic).
Experiment [10] shares this target. The experiment can be described thus: AUC; sedimentation velocity, 20 mM Tris-HCl pH 8.0, 200 mM NaCl, 20°C, 42,000 RPM, SEDFIT.

T2 sequence (A0ACD6BAY5 entry or part of it): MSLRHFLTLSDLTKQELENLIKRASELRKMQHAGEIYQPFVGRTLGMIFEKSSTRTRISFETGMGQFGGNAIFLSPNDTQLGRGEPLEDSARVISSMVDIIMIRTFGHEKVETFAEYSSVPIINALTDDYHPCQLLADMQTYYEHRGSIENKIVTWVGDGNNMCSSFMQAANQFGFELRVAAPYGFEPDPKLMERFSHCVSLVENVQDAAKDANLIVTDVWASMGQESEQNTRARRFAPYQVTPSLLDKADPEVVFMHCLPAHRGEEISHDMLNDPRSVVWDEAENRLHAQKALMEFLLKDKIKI

Regarding `CCC[C@H](N)C(=O)O` [NVA, l-norvaline], the thermal shift entry on Ps_cOTC [1] was “following CP binding, NVA can bind to Ps_cOTC and Ps_aOTC”; at Ps_aOTC [2], “following CP binding, NVA can bind to Ps_cOTC and Ps_aOTC”.
For `NC(=O)OP(=O)(O)O` [CP, carbamoyl phosphate], the ΔT stood at 6.5 °C on Ps_aOTC [3] and 1.3 °C on Ps_cOTC [4].
In the case of “anabolic ornithine carbamoyltransferase from Psychrobacter sp. PAMC 21119 (enzyme)”, the stoichiometry N in [5], in [6] and in experiment [7] was 3 each time.
Take “catabolic ornithine carbamoyltransferase from Psychrobacter sp. PAMC 21119 (enzyme)”: the stoichiometry N in experiment [8], in experiment [9] and in [10] was 3 throughout.
